No end group written: not given here. *: point of attachment. Biotin = O=C1N[C@H]2[C@H](CS[C@H]2CCCCC(=O)*)N1
Key:
[1] = molecular target: T1, alpha-synuclein peptide 1-95 (human); experiment: peptide ELISA
T1 construct: synthetic peptide coated on plate

[2] = molecular target: alpha-synuclein peptide 1-112 (human); experiment: peptide ELISA
asyn_113-127 [3] = molecular target: T2, asyn_113-127 (human); experiment: Ala-scan peptide ELISA, row B, run 2
T2 construct: also called pep1
T2 peptide: Biotin-LEDMPVDPDNEAYEM

asyn_113-127_114A [4] = molecular target: T3, asyn_113-127_114A (human); experiment: Ala-scan peptide ELISA, row B, run 2
T3 construct: substitution is already in the entry; also called pep3
T3 peptide: Biotin-LADMPVDPDNEAYEM

asyn_113-127_115A [5] = molecular target: T4, asyn_113-127_115A (human); experiment: Ala-scan peptide ELISA, row B, run 2
T4 construct: substitution is already in the entry; also called pep4
T4 peptide: Biotin-LEAMPVDPDNEAYEM

asyn_113-127_116A [6] = molecular target: T5, asyn_113-127_116A (human); experiment: Ala-scan peptide ELISA, row B, run 2
T5 construct: substitution is already in the entry; also called pep5
T5 peptide: Biotin-LEDAPVDPDNEAYEM

asyn_113-127_117A [7] = molecular target: T6, asyn_113-127_117A (human); experiment: Ala-scan peptide ELISA, row B, run 2
T6 construct: substitution is already in the entry; also called pep6
T6 peptide: Biotin-LEDMAVDPDNEAYEM

asyn_113-127_118A [8] = molecular target: T7, asyn_113-127_118A (human); experiment: Ala-scan peptide ELISA, row B, run 2
T7 construct: substitution is already in the entry; also called pep7
T7 peptide: Biotin-LEDMPADPDNEAYEM

asyn_113-127_119A [9] = molecular target: T8, asyn_113-127_119A (human); experiment: Ala-scan peptide ELISA, row B, run 2
T8 construct: substitution is already in the entry; also called pep8
T8 peptide: Biotin-LEDMPVAPDNEAYEM

asyn_113-127_120A [10] = molecular target: T9, asyn_113-127_120A (human); experiment: Ala-scan peptide ELISA, row B, run 2
T9 construct: substitution is already in the entry; also called pep9
T9 peptide: Biotin-LEDMPVDADNEAYEM

asyn_113-127_122A [11] = molecular target: T10, asyn_113-127_122A (human); experiment: Ala-scan peptide ELISA, row B, run 2
T10 construct: substitution is already in the entry; also called pep11
T10 peptide: Biotin-LEDMPVDPDAEAYEM

asyn_113-127_123A [12] = molecular target: T11, asyn_113-127_123A (human); experiment: Ala-scan peptide ELISA, row B, run 2
T11 construct: substitution is already in the entry; also called pep12
T11 peptide: Biotin-LEDMPVDPDNAAYEM

asyn_113-127_124G [13] = molecular target: T12, asyn_113-127_124G (human); experiment: Ala-scan peptide ELISA, row B, run 2
T12 construct: substitution is already in the entry; also called pep13
T12 peptide: Biotin-LEDMPVDPDNEGYEM

asyn_113-127_124P [14] = molecular target: T13, asyn_113-127_124P (human); experiment: Ala-scan peptide ELISA, row B, run 2
T13 construct: substitution is already in the entry; also called pep14
T13 peptide: Biotin-LEDMPVDPDNEPYEM

asyn_113-127_125A [15] = molecular target: T14, asyn_113-127_125A (human); experiment: Ala-scan peptide ELISA, row B, run 2
T14 construct: substitution is already in the entry; also called pep15
T14 peptide: Biotin-LEDMPVDPDNEAAEM

asyn_113-127_126A [16] = molecular target: T15, asyn_113-127_126A (human); experiment: Ala-scan peptide ELISA, row B, run 2
T15 construct: substitution is already in the entry; also called pep16
T15 peptide: Biotin-LEDMPVDPDNEAYAM

asyn_113-127_127A [17] = molecular target: T16, asyn_113-127_127A (human); experiment: Ala-scan peptide ELISA, row B, run 2
T16 construct: substitution is already in the entry; also called pep17
T16 peptide: Biotin-LEDMPVDPDNEAYEA

[18] = molecular target: T17, biotinylated human alpha-synuclein (human, UniProt P37840 1-140); experiment: Ala-scan peptide ELISA, row B, run 2
asyn_113-127 [19] = molecular target: T2, asyn_113-127; experiment: Ala-scan peptide ELISA, row E, run 1
asyn_113-127_113A = molecular target: T18, asyn_113-127_113A (human); experiment: Ala-scan peptide ELISA, row E, run 1
T18 construct: substitution is already in the entry; also called pep2
T18 peptide: Biotin-AEDMPVDPDNEAYEM

asyn_113-127_114A [20] = molecular target: T3, asyn_113-127_114A; experiment: Ala-scan peptide ELISA, row E, run 1
asyn_113-127_115A [21] = molecular target: T4, asyn_113-127_115A; experiment: Ala-scan peptide ELISA, row E, run 1
asyn_113-127_116A [22] = molecular target: T5, asyn_113-127_116A; experiment: Ala-scan peptide ELISA, row E, run 1
asyn_113-127_117A [23] = molecular target: T6, asyn_113-127_117A; experiment: Ala-scan peptide ELISA, row E, run 1
asyn_113-127_118A [24] = molecular target: T7, asyn_113-127_118A; experiment: Ala-scan peptide ELISA, row E, run 1
asyn_113-127_119A [25] = molecular target: T8, asyn_113-127_119A; experiment: Ala-scan peptide ELISA, row E, run 1
asyn_113-127_120A [26] = molecular target: T9, asyn_113-127_120A; experiment: Ala-scan peptide ELISA, row E, run 1
asyn_113-127_121A = molecular target: T19, asyn_113-127_121A (human); experiment: Ala-scan peptide ELISA, row E, run 1
T19 construct: substitution is already in the entry; also called pep10
T19 peptide: Biotin-LEDMPVDPANEAYEM

asyn_113-127_122A [27] = molecular target: T10, asyn_113-127_122A; experiment: Ala-scan peptide ELISA, row E, run 1
asyn_113-127_123A [28] = molecular target: T11, asyn_113-127_123A; experiment: Ala-scan peptide ELISA, row E, run 1
asyn_113-127_124G [29] = molecular target: T12, asyn_113-127_124G; experiment: Ala-scan peptide ELISA, row E, run 1
asyn_113-127_124P [30] = molecular target: T13, asyn_113-127_124P; experiment: Ala-scan peptide ELISA, row E, run 1
asyn_113-127_125A [31] = molecular target: T14, asyn_113-127_125A; experiment: Ala-scan peptide ELISA, row E, run 1
asyn_113-127_126A [32] = molecular target: T15, asyn_113-127_126A; experiment: Ala-scan peptide ELISA, row E, run 1
asyn_113-127_127A [33] = molecular target: T16, asyn_113-127_127A; experiment: Ala-scan peptide ELISA, row E, run 1
[34] = molecular target: T17, biotinylated human alpha-synuclein; experiment: Ala-scan peptide ELISA, row E, run 1

antibody concentration at which ELISA is positive [1]: > 2600 ng/mL
antibody concentration at which ELISA is positive [2]: > 2600 ng/mL
A450 (asyn_113-127 [3]): 0.394 OD
A450 (asyn_113-127_114A [4]): 0.387 OD
A450 (asyn_113-127_115A [5]): 0.387 OD
A450 (asyn_113-127_116A [6]): 0.433 OD
A450 (asyn_113-127_117A [7]): 0.459 OD
A450 (asyn_113-127_118A [8]): 0.382 OD
A450 (asyn_113-127_119A [9]): 0.056 OD
A450 (asyn_113-127_120A [10]): 0.24 OD
A450 (asyn_113-127_122A [11]): 0.06 OD
A450 (asyn_113-127_123A [12]): 0.378 OD
A450 (asyn_113-127_124G [13]): 0.326 OD
A450 (asyn_113-127_124P [14]): 0.058 OD
A450 (asyn_113-127_125A [15]): 0.057 OD
A450 (asyn_113-127_126A [16]): 0.392 OD
A450 (asyn_113-127_127A [17]): 0.429 OD
A450 [18]: 0.931 OD
A450 (asyn_113-127 [19]): 0.297 OD
A450 (asyn_113-127_113A): 0.302 OD
A450 (asyn_113-127_114A [20]): 0.273 OD
A450 (asyn_113-127_115A [21]): 0.183 OD
A450 (asyn_113-127_116A [22]): 0.296 OD
A450 (asyn_113-127_117A [23]): 0.304 OD
A450 (asyn_113-127_118A [24]): 0.324 OD
A450 (asyn_113-127_119A [25]): 0.05 OD
A450 (asyn_113-127_120A [26]): 0.2 OD
A450 (asyn_113-127_121A): 0.249 OD
A450 (asyn_113-127_122A [27]): 0.051 OD
A450 (asyn_113-127_123A [28]): 0.282 OD
A450 (asyn_113-127_124G [29]): 0.214 OD
A450 (asyn_113-127_124P [30]): 0.044 OD
A450 (asyn_113-127_125A [31]): 0.045 OD
A450 (asyn_113-127_126A [32]): 0.235 OD
A450 (asyn_113-127_127A [33]): 0.248 OD
A450 [34]: 0.383 OD
B1: 20H4 (antibody, rat IgG2b, V domains shown)
VH: AVQLVESGGGLVQPKESLKISCAASGFTFSNAAMYWVRQAPGKGLELLARIRTKPNNYATYHADSVKGRFTISRDDSQSMVYLHMGNLKTEDTAMYYCTADMATGDYWGPGVMVTVSS
VL: DIQMTQSPPVLSVSVGDRVTLSCKASQNINKNLDWYQQKHGEAPKPLIYSTNNLQTGVPSRFSGSGSGTDYTLTISSLQPEDVATYYCYQYKSAWTFGGGTKLELR
notes: also called clone 20H4; rat 20H4
